In US20260207704A1, “STAPLED PEPTIDES AND METHODS THEREOF” (priority 2022, published 2026) one finds IC50 data, which are given here for 15 molecules.

The IC50 is the concentration that inhibits the measured activity by half. Lower therefore signals higher potency.

The assay has as its target beta-catenin (human). The experiment in a line: fluorescence polarization. Background: Fluorescence polarisation rises when a labelled molecule tumbles more slowly, as on binding a larger partner.

*1 amine or outer side, *2 acyl side, *3 side chain or, on linkers, in order; H or OH if unused. Bridges are numbered along the chain shown (N, C = ends). Primed or numbered codes have the meaning given here. [ ]: non-standard residue; d: D form. PyrS2(6) = (S)-3-amino-1-((pent-4-en-1-yloxy)carbonyl)pyrrolidine-3-carboxylic acid, stapled with another olefin-containing amino acid residue through the olefin group, O=C(OCCCC=[*:3])N1CC[C@@](N[*:1])(C(=O)[*:2])C1; B5(4) = 2-amino-2-(pent-4-en-1-yl)hept-6-enoic acid, stapled through each of its two olefin groups with other olefin-containing amino acid residues, O=C(C(CCCC=[*:3])(CCCC=[*:4])N[*:1])[*:2]; PyrS2″ = (S)-3-amino-1-((pent-4-en-1-yloxy)carbonyl)pyrrolidine-3-carboxylic acid (olefin stapling residue), C=CCCCOC(=O)N1CC[C@@](N[*:1])(C(=O)[*:2])C1; PyrS2 = (S)-3-amino-1-((pent-4-en-1-yloxy)carbonyl)pyrrolidine-3-carboxylic acid, olefin staple residue, C=CCCCOC(=O)N1CC[C@@](N[*:1])(C(=O)[*:2])C1; TriAzLys(4) = (S)-2-amino-5-(1H-1,2,3-triazol-1-yl)pentanoic acid, staple through triazole 4-position, O=C([C@H](CCCn1cc([*:3])nn1)N[*:1])[*:2]; TriAzLys = (S)-2-amino-5-(1H-1,2,3-triazol-1-yl)pentanoic acid, stapled through triazole 4-position, O=C([C@H](CCCn1cc([*:3])nn1)N[*:1])[*:2]; PyrS2(5) = (S)-3-amino-1-((pent-4-en-1-yloxy)carbonyl)pyrrolidine-3-carboxylic acid, C=CCCCOC(=O)N1CC[C@@](N[*:1])(C(=O)[*:2])C1; B5″ = 2-amino-2-(pent-4-en-1-yl)hept-6-enoic acid (bis-olefin stapling residue), C=CCCCC(CCCC=C)(N[*:1])C(=O)[*:2]; B5(5) = 2-amino-2-(pent-4-en-1-yl)hept-6-enoic acid (two olefin arms), C=CCCCC(CCCC=C)(N[*:1])C(=O)[*:2]; TriAzLys″ = azidolysine residue closed into triazole staple, O=C([C@H](CCCCn1cc([*:3])nn1)N[*:1])[*:2]; 2F3MeF″ = aromatic residue, Cc1cccc(C[C@H](N[*:1])C(=O)[*:2])c1F; Phe(3-COOH) = N[C@@H](Cc1cccc(C(=O)O)c1)C(=O)O; 2F3MeF = Cc1cccc(C[C@H](N[*:1])C(=O)[*:2])c1F; Abu(4-yl) = O=C([C@H](CC[*:3])N[*:1])[*:2]; Phe(2-Cl) = N[C@@H](Cc1ccccc1Cl)C(=O)O; Bta = N[C@@H](Cc1csc2ccccc12)C(=O)O; Lys(iPr) = CC(C)NCCCC[C@H](N)C(=O)O; αAllylPro = C=CC[C@@]1(C(=O)O)CCCN1; tBuAla = CC(C)(C)C[C@H](N)C(=O)O; 3Thi = N[C@@H](Cc1ccsc1)C(=O)O; Cha = N[C@@H](CC1CCCCC1)C(=O)O; Suc = O=C(CCC(=O)[*:2])[*:1]; hSer = N[C@@H](CCO)C(=O)O; BztA″ = aromatic residue; Nle = CCCC[C@H](N)C(=O)O; Orn = NCCC[C@H](N)C(=O)O; TfeGA = not defined here; AsnR = not defined here; GlnR = not defined here; sAla = not defined here; PL3 = not defined here; B5 = not defined here; Aib = CC(C)(N)C(=O)O Where only a bound is given, the exact number is not on record here.

Chain of beta-catenin (human) (B6V8E6 146-665 limits assumed): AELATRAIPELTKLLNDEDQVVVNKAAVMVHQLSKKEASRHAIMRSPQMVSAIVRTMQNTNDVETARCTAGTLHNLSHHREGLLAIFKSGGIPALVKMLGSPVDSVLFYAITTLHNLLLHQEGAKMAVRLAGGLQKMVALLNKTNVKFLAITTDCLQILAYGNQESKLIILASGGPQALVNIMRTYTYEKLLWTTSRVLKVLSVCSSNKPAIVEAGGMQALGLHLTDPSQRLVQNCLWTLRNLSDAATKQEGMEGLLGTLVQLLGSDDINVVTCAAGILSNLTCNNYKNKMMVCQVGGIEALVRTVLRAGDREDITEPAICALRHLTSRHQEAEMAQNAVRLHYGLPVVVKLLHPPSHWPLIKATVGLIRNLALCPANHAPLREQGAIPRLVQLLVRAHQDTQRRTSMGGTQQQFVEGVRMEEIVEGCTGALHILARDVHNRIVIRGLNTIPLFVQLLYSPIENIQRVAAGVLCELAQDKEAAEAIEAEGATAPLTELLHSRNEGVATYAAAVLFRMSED

B1: I-118 (peptide)
peptide: Ac-[αAllylPro]D[tBuAla][B5″][hSer][TfeGA]AAFK[PyrS2″][2F3MeF][Bta][GlnR]A-NH2
modifications: bridge 10-14; not fully specified (bridges); reading uncertain; also: Lys*3 and GlnR*3 marked *3
As for B1, the IC50 was over 1000 nM.

B2: I-48 (peptide)
peptide: Ac-[αAllylPro]D[tBuAla][B5(4)]D[Phe(3-COOH)]KAFL[PyrS2(6)][3Thi][Bta]K-NH2
modifications: not fully specified (residues 6, 7, bridges); printed as Ac-PL3-Asp-Npg-B5-Asp-3COOHF-[diphenate]-Lys-Ala-Phe-Leu-PyrS2-3Thi-BztA-Lys-NH2
In the case of B2, the IC50 is under 50 nM.

B3: I-146 (peptide)
peptide: Ac-[αAllylPro][hSer][tBuAla][B5]D[Phe(3-COOH)][Nle]AFK[PyrS2″][2F3MeF″][BztA″][GlnR]LS-NH2
modifications: bridge 10-14; not fully specified (bridges); printed as Ac-PL3-Hse-Npg-B5-Asp-3COOHF-nLeu-Ala-Phe-Lys*3-PyrS2-2F3MeF-BztA-GlnR*3-Leu-Ser-NH2; reading uncertain; also: Lys10 and GlnR14 marked *3
As for B3, the IC50 is over 1000 nM.

B4: I-40 (peptide)
peptide: Ac-[αAllylPro]D[tBuAla][B5(5)]D[Phe(3-COOH)]AAF[AsnR][PyrS2(5)][3Thi][Bta][Orn]-NH2
modifications: bridge 10-14; reading uncertain; also: PL3/B5/PyrS2 staple links not placed, printed as Ac-PL3-Asp-Npg-B5-Asp-3COOHF-Ala-Ala-Phe-AsnR*3-PyrS2-3Thi-BztA-Orn*3-NH2
As to B4, the IC50 was over 1000 nM. Then Ac-[αAllylPro]D[tBuAla][B5″]DDAAF[TriAzLys][PyrS2″][3Thi][Bta][Abu(4-yl)]-NH2 (triazole 10-14; also: PL3-B5 and PyrS2 links not placed) [I-18], with under 50 nM.

B5: I-47 (peptide)
peptide: Ac-[αAllylPro]D[tBuAla][B5(5)]D[Phe(3-COOH)]KAFL[PyrS2(5)][3Thi][Bta]K-NH2
modifications: not fully specified (residues 6, 7, bridges); printed as Ac-PL3-Asp-Npg-B5-Asp-3COOHF-[Me2Mal]-Lys-Ala-Phe-Leu-PyrS2-3Thi-BztA-Lys-NH2
As for B5, the IC50 was under 50 nM.

B6: I-150 (peptide)
peptide: Ac-[αAllylPro]N[Cha][B5″]DT[Lys(iPr)]AF[GlnR][PyrS2″]F[Bta]K-NH2
modifications: bridge 10-14; reading uncertain; also: PL3-B5 and PyrS2 links not placed, printed as Ac-PL3-Asn-Cha-B5-Asp-Thr-iPrLys-Ala-Phe-GlnR*3-PyrS2-Phe-BztA-Lys*3-NH2
In the case of B6, the IC50 was over 1000 nM.

B7: I-119 (peptide)
peptide: Ac-[αAllylPro]D[tBuAla][B5″][hSer][TfeGA]AAFK[PyrS2″][2F3MeF][Bta][GlnR]A-NH2
modifications: bridge 10-14; not fully specified (bridges); reading uncertain; also: Lys*3 and GlnR*3 marked *3
In turn, B7 gave an IC50 of over 1000 nM.

B8: I-46 (peptide)
peptide: Ac-[αAllylPro]D[tBuAla][B5(5)]D[Phe(3-COOH)]KAFL[PyrS2(5)][3Thi][Bta]K-NH2
modifications: not fully specified (residues 6, 7, bridges); printed as Ac-PL3-Asp-Npg-B5-Asp-3COOHF-[succinate]-Lys-Ala-Phe-Leu-PyrS2-3Thi-BztA-Lys-NH2
Take B8: the IC50 was under 50 nM.

B9: I-22 (peptide)
peptide: Ac-[PL3]D[tBuAla][B5(4)]D[Phe(3-COOH)]AAF[TriAzLys″][PyrS2″][2F3MeF][Bta][sAla]-NH2
modifications: triazole 10-14; not fully specified (bridges); printed as Ac-PL3-Asp-Npg-B5-Asp-3COOHF-Ala-Ala-Phe-TriAzLys*3-PyrS2-2F3MeF-BztA-sAla*3-NH2; reading uncertain
In the case of B9, the IC50 is under 50 nM.

B10: I-335 (peptide)
peptide: Ac-[αAllylPro]D[tBuAla][B5]D[Phe(3-COOH)][Aib]AF[TriAzLys(4)][PyrS2][3Thi][Bta][Abu(4-yl)]A-NH2
modifications: triazole 10-14; not fully specified (bridges); printed as Ac-PL3-Asp-Npg-B5-Asp-3COOHF-Aib-Ala-Phe-TriAzLys*3-PyrS2-3Thi-BztA-sAla*3-Ala-NH2; reading uncertain
Molecule B10 registered an IC50 of under 50 nM.

B11: I-51 (peptide)
peptide: Ac-[αAllylPro]D[tBuAla][B5(4)]D[Phe(3-COOH)]K(Suc)AFL[PyrS2(6)][Phe(2-Cl)][Bta]K-NH2
modifications: not fully specified (residue 6, bridges); printed as Ac-PL3-Asp-Npg-B5-Asp-3COOHF-[succinate]-Lys-Ala-Phe-Leu-PyrS2-2ClF-BztA-Lys-NH2
Take B11: the IC50 was under 50 nM.

B12: I-20 (peptide)
peptide: Ac-[PL3]D[tBuAla][B5(4)]D[Phe(3-COOH)]AAF[TriAzLys″][PyrS2″][3Thi][Bta][sAla]-NH2
modifications: triazole 10-14; not fully specified (bridges); printed as Ac-PL3-Asp-Npg-B5-Asp-3COOHF-Ala-Ala-Phe-TriAzLys*3-PyrS2-3Thi-BztA-sAla*3-NH2; reading uncertain
B12 showed an IC50 of under 50 nM.

B13: I-145 (peptide)
peptide: Ac-[αAllylPro][hSer][tBuAla][B5]D[Phe(3-COOH)]AAFK[PyrS2(5)][2F3MeF″][BztA″][GlnR]LS-NH2
modifications: bridge 10-14; not fully specified (bridges); printed as Ac-PL3-Hse-Npg-B5-Asp-3COOHF-Ala-Ala-Phe-Lys*3-PyrS2-2F3MeF-BztA-GlnR*3-Leu-Ser-NH2; reading uncertain; also: Lys10 and GlnR14 marked *3
The molecule B13 registered an IC50 of over 1000 nM.

B14: I-45 (peptide)
peptide: Ac-[αAllylPro]D[tBuAla][B5(5)]D[Phe(3-COOH)]KAFL[PyrS2(5)][3Thi][Bta]K-NH2
modifications: not fully specified (residue 6); printed as Ac-PL3-Asp-Npg-B5-Asp-3COOHF-[isophthalate]-Lys-Ala-Phe-Leu-PyrS2-3Thi-BztA-Lys-NH2; also: isophthalate unit next to Lys7, attachment not given here, PL3/B5/PyrS2 staple links not placed
B14 showed an IC50 of under 50 nM.
